Experimental data reported in patent US20210017226A1, “METHOD OF GENERATING INTERACTING PEPTIDES” (Peption, LLC, priority 2017, published 2021).
“Also recorded” adds a separate entry of the source.

How the values were obtained:
[1] = biological target: alkaline phosphatase target sequence (PTD8, […]) (Escherichia coli, UniProt P00634); conditions: dot blot, coil-beta sheet-coil target
Experimental: For dot blot analysis, 1 μl (2.5 μg) or 2 μl (5 μg) of samples were spotted onto the nitrocellulose (NC) membrane and dried completely. Then, non-specific sites were blocked by soaking the membrane in the blocking solution made for NC membranes [Thermo Fisher Scientific, WesternBreeze™ Blocker/Diluent (Part A and B), catalog #WB7050]. The membrane was washed twice with water (1 ml per cm^2 membrane), and incubated with the 1st antibody (Ab) in a binding/wash (BW) buffer [50 mM sodiumphosphate, pH 8.0, 300 mM NaCl, and 0.01% Tween 20] for 1 h. The membrane was washed 4 times (for 2 minutes per wash) with the wash buffer [Thermo Fisher Scientific, WesternBreeze™ Wash Solution, catalog #WB7003]. If the 1st oligopeptide was Anti-Cas9 Ab-HRP conjugate [Thermo Fisher Scientific, catalog #MAC133P] or the peptide-AP fusions, the membrane was washed twice with water, and incubated with the chromogenic substrates, Chromogenic Substrate (TMB) [Thermo Fisher Scientific, catalog #WP20004] for HRP and NBT/BCIP substrate solution for AP [Thermo Fisher Scientific, catalog #34042]. Otherwise, the membrane was incubated with in the blocking solution for 1 h. To detect His-tagged peptide and proteins, the Anti-6His Ab-HRP conjugate [Thermo Fisher Scientific, catalog 46-0707] was used. Then the membrane was washed four times with the wash buffer and two times with water. Finally, the blot was incubated with the chromogenic substrates.

[2] = biological target: T1, PDGF-β target sequence (PTD10, […]) (Homo sapiens, UniProt P01127); test: Dot blot to detect the PDGF-β target sequence PTD10; format: binding; conditions: beta sheet target
T1 construct: […]; purchased Peptide 2.0
Experimental: (§1) Finally, the blot was incubated with the chromogenic substrates.

[3] = biological target: T2, Cas9 target sequence (PTD12, EKLYLYYLQ, Helix: E813 to Q821) (Streptococcus pyogenes serotype M1, UniProt Q99ZW2); test: Dot blot to detect the Cas9 target sequence peptide PTD12; format: binding; conditions: for interaction of His-tagged synthetic CAAP oligopeptide with the target peptide PTD12: dot blot, peptide as 1st Ab, Anti-6His Ab-HRP detection
T2 construct: […]; purchased Peptide 2.0
Experimental: as §1
For the image processing, we used Adobe Photoshop 7.0. Quantitative image analysis of the digital images was carried out using measuring tools of imaging software ImageJ (Schneider et al. 2012). Image analysis results were calculated by averaging data from three independent experiments.

Cas9 protein [4] = biological target: T3, Cas9 protein (Streptococcus pyogenes serotype M1, UniProt Q99ZW2); test: Dot blot to detect whole Cas9 protein (non-denatured); format: binding; conditions: Cas9 (no tag)
T3 construct: made in house; host or cells: E. coli BL21 Star (DE3)
Experimental: as §1

Cas9 protein [5] = biological target: T3, Cas9 protein; test: Western blot to detect whole Cas9 protein (denatured); format: binding; conditions: Cas9 (no tag), 4-20% SDS-PAGE
Experimental: as §1

[6] = test system: whole proteome of E. coli BL21 Star DE3; test: Western blot to detect binders in the whole proteome of E. coli BL21 Star DE3 (specificity); format: binding
Excerpt: For the western blot analysis, the protein samples were resolved in 4-20% gradient SDS-PAGE gel, transferred to NC membrane, and subjected to the western blot analysis using the same method for the dot blot analysis.

[7] = biological target: control peptide (PTD8, unrelated peptide) (Escherichia coli, UniProt P00634); conditions: dot blot, unrelated target (negative control)
Experimental: For dot blot analysis, 1 μl (2.5 μg) or 2 μl (5 μg) of samples were spotted onto the nitrocellulose (NC) membrane and dried completely. Then, non-specific sites were blocked by soaking the membrane in the blocking solution made for NC membranes [Thermo Fisher Scientific, WesternBreeze™ Blocker/Diluent (Part A and B), catalog #WB7050]. The membrane was washed twice with water (1 ml per cm^2 membrane), and incubated with the 1st antibody (Ab) in a binding/wash (BW) buffer [50 mM sodiumphosphate, pH 8.0, 300 mM NaCl, and 0.01% Tween 20] for 1 h. The membrane was washed 4 times (for 2 minutes per wash) with the wash buffer [Thermo Fisher Scientific, WesternBreeze™ Wash Solution, catalog #WB7003]. If the 1st oligopeptide was Anti-Cas9 Ab-HRP conjugate [Thermo Fisher Scientific, catalog #MAC133P] or the peptide-AP fusions, the membrane was washed twice with water, and incubated with the chromogenic substrates, Chromogenic Substrate (TMB) [Thermo Fisher Scientific, catalog #WP20004] for HRP and NBT/BCIP substrate solution for AP [Thermo Fisher Scientific, catalog #34042]. Otherwise, the membrane was incubated with in the blocking solution for 1 h. To detect His-tagged peptide and proteins, the Anti-6His Ab-HRP conjugate [Thermo Fisher Scientific, catalog 46-0707] was used. Then the membrane was washed four times with the wash buffer and two times with water. […]

Cas9 nuclease = biological target: T4, Cas9 nuclease (Streptococcus pyogenes serotype M1, UniProt Q99ZW2); test: Cas9 activity assay in vitro (RNA-guided cleavage of 510 bp human AAVS1 DNA); format: biochemical
T4 construct: made in house; host or cells: E. coli BL21 Star (DE3)
Excerpt: The sgRNA targeting human AAVS1 region (target sequence […] (SEQ ID NO: 36), PAM sequence underlined) was synthesized by in vitro transcription using a 118 bp PCR-assembled DNA fragment AAVS1_T23826 as template, following the manufacturer's protocol [Thermo Fisher Scientific, TranscriptAid T7 High Yield Transcription Kit, catalog #K0441]. The sgRNA product was purified using the GeneJET RNA Purification Micro Column [Thermo Fisher Scientific, catalog #K0841].
A 510 bp human AAVS1 region was amplified from HEK293 genomic DNA by PCR using a primer set (CH1161 and CH1162) and used as a target DNA for the in vitro CRISPR/Cas9 assay. Performance of the Cas9 protein was assessed in various concentrations of Cas9 [100, 50, 25, 12.5, and 0 ng] in presence or absence of sgRNA and peptides (PTD14 (SEQ ID NO: 11) and PTD16 (SEQ ID NO: 30)) in the 1× buffer K [20 mM Tris-HCl, pH 8.5, 10 mM MgCl2, 1 mM Dithiothreitol (DTT), and 100 mM KCl]. The PTD16 (SEQ ID NO: 30) was used as an unrelated peptide control. The reaction mixture was incubated at 37° C. for 15 minutes. The reaction was stopped by adding a stop buffer [1 mM Tris-HCl (pH 7.5), 10 mM EDTA, 6.5% (w/v) Sucrose, 0.03% (w/v) Bromophenol Blue] and heat inactivated at 75° C. for 5 minutes. The reaction samples were resolved in 4% agarose gel.

T3 sequence (Q99ZW2 whole entry): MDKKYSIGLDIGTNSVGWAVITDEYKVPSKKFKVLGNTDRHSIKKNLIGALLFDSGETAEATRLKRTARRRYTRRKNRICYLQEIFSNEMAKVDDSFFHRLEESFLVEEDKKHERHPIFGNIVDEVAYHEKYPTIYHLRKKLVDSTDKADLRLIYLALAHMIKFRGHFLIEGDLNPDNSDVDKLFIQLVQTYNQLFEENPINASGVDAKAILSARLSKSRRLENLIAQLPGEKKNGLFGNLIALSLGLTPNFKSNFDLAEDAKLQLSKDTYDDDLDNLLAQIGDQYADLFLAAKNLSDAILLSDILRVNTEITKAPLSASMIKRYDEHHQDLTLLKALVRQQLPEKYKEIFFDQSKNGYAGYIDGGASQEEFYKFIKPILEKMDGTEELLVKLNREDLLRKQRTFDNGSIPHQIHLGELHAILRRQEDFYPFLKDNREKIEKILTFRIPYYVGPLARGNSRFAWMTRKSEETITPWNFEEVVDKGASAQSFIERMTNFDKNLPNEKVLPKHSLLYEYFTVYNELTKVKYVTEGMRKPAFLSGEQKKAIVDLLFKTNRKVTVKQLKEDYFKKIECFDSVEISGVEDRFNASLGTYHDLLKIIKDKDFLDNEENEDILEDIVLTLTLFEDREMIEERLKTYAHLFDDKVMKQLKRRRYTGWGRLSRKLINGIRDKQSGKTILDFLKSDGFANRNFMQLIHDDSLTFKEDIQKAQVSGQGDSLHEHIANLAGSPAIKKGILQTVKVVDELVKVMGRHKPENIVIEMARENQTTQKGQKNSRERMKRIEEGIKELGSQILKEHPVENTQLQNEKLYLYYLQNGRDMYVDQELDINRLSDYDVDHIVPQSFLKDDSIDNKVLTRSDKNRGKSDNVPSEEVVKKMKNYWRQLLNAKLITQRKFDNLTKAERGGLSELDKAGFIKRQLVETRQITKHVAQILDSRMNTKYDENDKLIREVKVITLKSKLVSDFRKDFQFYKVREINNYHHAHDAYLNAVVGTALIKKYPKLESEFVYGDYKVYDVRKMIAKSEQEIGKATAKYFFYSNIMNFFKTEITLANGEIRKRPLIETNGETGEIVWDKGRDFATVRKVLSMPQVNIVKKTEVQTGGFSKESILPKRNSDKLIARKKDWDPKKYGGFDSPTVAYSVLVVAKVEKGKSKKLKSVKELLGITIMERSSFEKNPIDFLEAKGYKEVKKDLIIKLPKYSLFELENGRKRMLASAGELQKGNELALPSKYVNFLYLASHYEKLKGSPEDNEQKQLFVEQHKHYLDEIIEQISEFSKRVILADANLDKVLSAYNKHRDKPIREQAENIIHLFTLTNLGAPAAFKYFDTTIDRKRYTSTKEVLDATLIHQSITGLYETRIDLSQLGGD
T4 sequence (Q99ZW2 whole entry): as above

Sequence: LSRAYLSYEGSGSHHHHHH [PTD15]
- interaction with the AP target oligopeptide PTD8 [1]: no detectable interaction

Sequence: GSGSHHHHHH [PTD20, reference compound]
- interaction with the PDGF-β target oligopeptide PTD10 [2]: no detectable interaction
- interaction with the AP target oligopeptide PTD8 [1]: no detectable interaction

Sequence: LEQIKIRLFGSGSHHHHHH [PTD13]
- interaction of His-tagged synthetic CAAP oligopeptide with the target peptide PTD12 [3]: could interact; also recorded: detected
- detection of whole Cas9 protein in dot blot (Cas9 protein [4]): unable to detect
- detection of whole Cas9 protein in western blot (Cas9 protein [5]): unable to detect
- number of major bands detected in E. coli whole cell lysate [6]: one
- number of minor bands detected in E. coli whole cell lysate [6]: 2
- interaction of His-tagged synthetic CAAP oligopeptide with the control peptide PTD8 [7]: no interaction

Sequence: EYRLYLRALCYPENLSRAYLSYEGSGSHHHHHH [PTD16]
- interaction with the AP target oligopeptide PTD8 [1]: bound to the target

Sequence: DLDYAQLRDKCYPENEDRLQSYDLDGSGSHHHHHH [PTD18, His-tagged CAAP oligopeptide dimer, parallel and antiparallel, against PDGF-β]
- interaction with the PDGF-β target oligopeptide PTD10 [2]: bound to the target

Sequence: LLQVDVILLCYPENLEQIKIRLFGSGSHHHHHH [PTD14]
- strength of interaction with PTD12 relative to monomer PTD13 ([3]; dot blot densitometry, dimer vs monomer): stronger (two-fold)
- interaction of His-tagged synthetic CAAP oligopeptide with the target peptide PTD12 [3]: could interact
- detection of whole Cas9 protein in dot blot (Cas9 protein [4]): able to detect
- detection of whole Cas9 protein in western blot (Cas9 protein [5]): able to detect
- number of major bands detected in E. coli whole cell lysate [6]: one
- number of minor bands detected in E. coli whole cell lysate [6]: 4
- effect on RNA-guided DNA cleavage by Cas9 nuclease (Cas9 nuclease; 510 bp AAVS1 DNA, 37° C. 15 minutes, PTD16 as unrelated peptide control): no significant effect
- non-specific DNA binding activity of the Cas9 protein directed by the peptide (Cas9 nuclease; presence or absence of gRNA, various Cas9 concentrations): significant induction; also recorded: very strong
- interaction of His-tagged synthetic CAAP oligopeptide with the control peptide PTD8 [7]: no interaction

Sequence: EDRLQSYDLDGSGSHHHHHH [PTD17, His-tagged CAAP oligopeptide monomer, antiparallel, against PDGF-β]
- interaction with the PDGF-β target oligopeptide PTD10 [2]: no detectable interaction
